Tested on: ARPE-19 cells
Assay: Screening of individual supplements on ARPE-19 cell growth, 96-well plate, Hoechst nuclear stain
Assay type: cell-based, human
Settings: components with p-value of <0.05; DMEM/F12 2% FBS, days 2-8 post plant, FIG. 1

B1: EGF: Epidermal Growth Factor, growth factor supplement (protein, UniProt P01133 23-1207, looked up)
Pro-epidermal growth factor: PQHWSCPEGTLAGNGNSTCVGPAPFLIFSHGNSIFRIDTEGTNYEQLVVDAGVSVIMDFHYNEKRIYWVDLERQLLQRVFLNGSRQERVCNIEKNVSGMAINWINEEVIWSNQQEGIITVTDMKGNNSHILLSALKYPANVAVDPVERFIFWSSEVAGSLYRADLDGVGVKALLETSEKITAVSLDVLDKRLFWIQYNREGSNSLICSCDYDGGSVHISKHPTQHNLFAMSLFGDRIFYSTWKMKTIWIANKHTGKDMVRINLHSSFVPLGELKVVHPLAQPKAEDDTWEPEQKLCKLRKGNCSSTVCGQDLQSHLCMCAEGYALSRDRKYCEDVNECAFWNHGCTLGCKNTPGSYYCTCPVGFVLLPDGKRCHQLVSCPRNVSECSHDCVLTSEGPLCFCPEGSVLERDGKTCSGCSSPDNGGCSQLCVPLSPVSWECDCFPGYDLQLDEKSCAASGPQPFLLFANSQDIRHMHFDGTDYGTLLSQQMGMVYALDHDPVENKIYFAHTALKWIERANMDGSQRERLIEEGVDVPEGLAVDWIGRRFYWTDRGKSLIGRSDLNGKRSKIITKENISQPRGIAVHPMAKRLFWTDTGINPRIESSSLQGLGRLVIASSDLIWPSGITIDFLTDKLYWCDAKQSVIEMANLDGSKRRRLTQNDVGHPFAVAVFEDYVWFSDWAMPSVMRVNKRTGKDRVRLQGSMLKPSSLVVVHPLAKPGADPCLYQNGGCEHICKKRLGTAWCSCREGFMKASDGKTCLALDGHQLLAGGEVDLKNQVTPLDILSKTRVSEDNITESQHMLVAEIMVSDQDDCAPVGCSMYARCISEGEDATCQCLKGFAGDGKLCSDIDECEMGVPVCPPASSKCINTEGGYVCRCSEGYQGDGIHCLDIDECQLGEHSCGENASCTNTEGGYTCMCAGRLSEPGLICPDSTPPPHLREDDHHYSVRNSDSECPLSHDGYCLHDGVCMYIEALDKYACNCVVGYIGERCQYRDLKWWELRHAGHGQQQKVIVVAVCVVVLVMLLLLSLWGAHYYRTQKLLSKNPKNPYEESSRDVRSRRPADTEDGMSSCPQPWFVVIKEHQDLKNGGQPVAGEDGQAADGSMQPTSWRQEPQLCGMGTEQGCWIPVSSDKGSCPQVMERSFHMPSYGTQTLEGGVEKPHSLLSANPLWQQRALDPPHQMELTQ
modifications: Pro-epidermal growth factor
notes: Epidermal Growth Factor, growth factor supplement
effect on cell growth: positive effect on cell growth
